Earlier results as cited in article PMC1854907.

Target: SCP2 PTS1 peptide (Homo sapiens)
Test: ITC

- Kd: 664 nM
Substance: Pex5p(C) C-terminal domain (from UniProt P50542)
